Source: PMC10576031 (Proceedings of the National Academy of Sciences of the …, 2023)

How the values were obtained:
tau-K18 fibrils = tau-K18 fibrils (Homo sapiens, wild type, 2N4R (tau-F) …, UniProt P10636-8); assay: far-Western, overlay or dot blot
[1] = molecular target: Human wild-type tau-K18 (residues 244 to 372), monomer (Homo sapiens, wild type, 2N4R (tau-F) …, UniProt P10636-8); assay: far-Western, overlay or dot blot
Chain of Human wild-type tau-K18 (residues 244 to 372), monomer (P10636 561-689): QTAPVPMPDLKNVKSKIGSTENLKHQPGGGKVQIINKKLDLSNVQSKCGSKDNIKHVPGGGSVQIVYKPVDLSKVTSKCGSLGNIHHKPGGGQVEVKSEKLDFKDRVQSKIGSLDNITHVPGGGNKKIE

Chain of tau-K18 fibrils (P10636 561-689): as above

B1: VDW nanobody (first generation, scaffold 1) (VHH)
VHH: QVQLQESGGGLVQPGGSLRLSCAASGRTFSSYNMGWFRQAPGKGREFVASITSSGDKSDYTDSVKGRFTISRDNAKNTMYLQMNNLKPEDTATYYCARGSVWIWYEPVDWSEGTQVTVSS
B1: binds (tau-K18 fibrils); binds [1].
